T1: Mouse CTGF protein-His tag (mouse, UniProt P29268 26-348)
T1 construct: C-terminal His tag; also called mouse CTGF-his protein; mouse CTGF fusion protein
T1 sequence: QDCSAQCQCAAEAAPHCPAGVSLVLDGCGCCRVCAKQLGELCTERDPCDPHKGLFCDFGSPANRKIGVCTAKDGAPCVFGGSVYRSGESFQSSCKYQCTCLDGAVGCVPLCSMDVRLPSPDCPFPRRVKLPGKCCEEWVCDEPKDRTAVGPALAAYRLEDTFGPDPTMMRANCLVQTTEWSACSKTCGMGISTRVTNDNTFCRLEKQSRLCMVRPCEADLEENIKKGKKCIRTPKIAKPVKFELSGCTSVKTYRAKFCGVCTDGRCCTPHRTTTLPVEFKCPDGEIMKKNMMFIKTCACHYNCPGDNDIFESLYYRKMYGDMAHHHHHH

B1: positive control CTGF antibody mAb1 (antibody, V domains shown)
VH: EGQLVQSGGGLVHPGGSLRLSCAGSGFTFSSYGMHWVRQAPGKGLEWVSGIGTGGGTYSTDSVKGRFTISRDNAKNSLYLQMNSLRAEDMAVYYCARGDYYGSGSFFDCWGQGTLVTVSS
VL: DIQMTQSPSSLSASVGDRVTITCRASQGISSWLAWYQQKPEKAPKSLIYAASSLQSGVPSRFSGSGSGTDFTLTISSLQPEDFATYYCQQYNSYPPTFGQGTKLEIKR
notes: Positive control, from CN1829740B; also called pamrevlumab; FG-3019
B2: Hu164-67wl (antibody, human IgG1, lambda)
heavy: not shown
light: ETVVTQEPSLTVSPGGTVTLTCRSSIGAVTTSNYANWVQQKPGQAFRGLIGGTSNRAPWTPARFSGSLLGGKAALTLSGVQPEDEAEYYCALWYSTHYVFGGGTKLTVLGQPKANPTVTLFPPSSEELQANKATLVCLISDFYPGAVTVAWKADGSPVKAGVETTKPSKQSNNKYAASSYLSLTPEQWKSHRSYSCQVTHEGSTVEKTVAPTEC
B3: Hu164-57wl (antibody, human IgG1, lambda, V domains shown)
VH: EVTLKESGPVLVKPTETLTLTCTVSGFSLSTFGVHWIRQPPGKALEWLAVIWRRGGTDYNAAFMSRLTISKDTSKSQVVLTMTNMDPVDTATYYCARDGGFDYWGQGTTVTVSS
VL: ETVVTQEPSLTVSPGGTVTLTCRSSIGAVTTSNYANWVQQKPGQAFRGLIGGTSNRAPWTPARFSGSLLGGKAALTLSGVQPEDEAEYYCALWYSTHYVFGGGTKLTVLG
B4: Hu164-68wl (antibody, human IgG1, lambda, V domains shown)
VH: B3 VH with A44G, A49G, L80F
VL: ETVVTQEPSFSVSPGGTVTLTCRSSIGAVTTSNYANWVQQTPGQAFRGLIGGTSNRAPGVPDRFSGSILGNKAALTITGAQADDESDYYCALWYSTHYVFGGGTKLTVLG
B5: Hu164-69wl (antibody, human IgG1, lambda, V domains shown)
VH: B3 VH with A44G, A49G, L80F
VL: ESVVTQPPSVSGAPGQRVTISCRSSIGAVTTSNYANWVQQLPGTAFKGLIGGTSNRAPGVPDRFSGSKSGTSASLAITGLQAEDEADYYCALWYSTHYVFGGGTKLTVLG
B6: Hu164-77wl (antibody, human IgG1, lambda, V domains shown)
VH: EVQLQESGPGLVKPSQTLSLTCTVSGFSISTFGVHWIRQHPGKGLEWIGVIWRRGGTDYNAAFMSRVTISKDTSKNQVSLKLSSVTAADTAVYYCARDGGFDYWGQGTTVTVSS
VL: B3 VL
B7: Hu164-87wl (antibody, human IgG1, lambda, V domains shown)
VH: B6 VH with I48L, V67L, L80F
VL: B3 VL
B8: Hu147-22wk (antibody, human IgG1, kappa, V domains shown)
VH: EVQLVESGGGLVQPGGSLRLSCAASGFTFNTYAMNWVRQAPGKGLEWVARIRTKSNNYATYYADSVKDRFTISRDDSKNSLYLQMNSLKTEDTAVYYCVETGFAYWDQGTLVTVSS
VL: EIVLTQSPATLSLSPGERATLSCSASSSVSYMHWFQQKPGQSPKLLIYSTSNLASGIPARFSGSGSGTDYTLTISSLEPEDFAVYYCQQRSSYPLTFGQGTKLEIKR
B9: Hu147-12wk (antibody, human IgG1, kappa, V domains shown)
VH: B8 VH with N30S, A49G
VL: B8 VL
B10: Hu147-14wk (antibody, human IgG1, kappa, V domains shown)
VH: B8 VH with N30S, A49G
VL: DIQMTQSPSSLSASVGDRVTITCSASSSVSYMHWFQQKPGKSPKLLIYSTSNLASGVPSRFSGSGSGTDYTLTISSLQPEDFATYYCQQRSSYPLTFGQGTKLEIKR
B11: Hu147-23wk (antibody, human IgG1, kappa, V domains shown)
VH: B8 VH
VL: B8 VL with L46W, I57V
B12: Hu147-31wk (antibody, human IgG1, kappa, V domains shown)
VH: B8 VH with T28S, K78E, N79S
VL: B8 VL with K44R
B13: Hu147-15wk (antibody, human IgG1, kappa, V domains shown)
VH: B8 VH with N30S, A49G
VL: B10 VL with M4L, L46W
B14: Hu147-11wk (antibody, human IgG1, kappa, V domains shown)
VH: B8 VH with N30S, A49G
VL: B8 VL with K44R
B15: Hu147-13wk (antibody, human IgG1, kappa, V domains shown)
VH: B8 VH with N30S, A49G
VL: B8 VL with L46W, I57V
B16: Hu147-21wk (antibody, human IgG1, kappa, V domains shown)
VH: B8 VH
VL: B8 VL with K44R
B17: Hu147-32wk (antibody, human IgG1, kappa, V domains shown)
VH: B8 VH with T28S, K78E, N79S
VL: B8 VL
B18: Hu147-34wk (antibody, human IgG1, kappa, V domains shown)
VH: B8 VH with T28S, K78E, N79S
VL: B10 VL
B19: Hu147-33wk (antibody, human IgG1, kappa, V domains shown)
VH: B8 VH with T28S, K78E, N79S
VL: B8 VL with L46W, I57V
B20: Hu147-24wk (antibody, human IgG1, kappa, V domains shown)
VH: B8 VH
VL: B10 VL

Drawing on US20220324953A1 (JIANGSU HENGRUI MEDICINE, published 2022), this text covers EC50 for 20 molecules.

Substitutions are numbered along the chain they refer to.

For the assay, the target named is T1, Mouse CTGF protein-His tag. Put plainly: ELISA, plate coated with mouse CTGF-his. Here is the method:
The binding activity of anti-mouse CTGF antibody to mouse CTGF protein was tested by ELISA assay. A 96-well microtiter plate was directly coated with the mouse CTGF fusion protein. The signal strength upon the addition of the antibody was used to determine the binding activity of the antibody to mouse CTGF. The specific experimental procedures were as follows:
The mouse CTGF-his protein was diluted with PBS, pH 7.4 (Shanghai Yuanpei, Cat No. B320) buffer to a concentration of 0.5 μg/ml, added into the 96-well microtiter plate (Corning, Cat No. CLS3590-100EA) at 50 μl/well, and incubated in an incubator at 37° C. for 2 hours. The liquid was removed, 250 μl/well blocking solution (5% skim milk (BD skim milk, Cat No. 232100) diluted in PBS) was added, and incubated in an incubator at 37° C. for 3 hours or at 4° C. overnight (16-18 hours) for blocking. After the blocking was finished, the blocking solution was removed, the plate was washed for 3 times with PBST buffer (PBS containing 0.1% Tween-20, pH 7.4), 50 μl/well of various concentrations of each of the test antibodies (antibodies purified from hybridoma or humanized antibodies) diluted with sample dilution solution were added, and incubated in an incubator at 37° C. for 1 hours. After the incubation was finished, the plate was washed for 3 times with PBST, 50 μl/well of HRP-labeled goat anti-mouse secondary antibody (Jackson Immuno Research, Cat No. 115-035-003) or goat anti-human secondary antibody (Jackson Immuno Research, Cat No. 109-035-003) diluted with sample dilution solution was added, and incubated at 37° C. for 1 hour. The plate was washed for 5 times with PBST, 50 μl/well of TMB chromogenic substrate (KPL, Cat No. 52-00-03) was added, incubated at room temperature for 5-10min, and 50 μl/well of 1 M H₂SO₄ was added to stop the reaction. The absorbance value was read by a microplate reader (Molecular Devices, VERSA max) at a wavelength of 450 nm, and the data was analyzed with GraphPad Prism 5. The binding of CTGF antibody to mouse CTGF protein was calculated as EC50 value.
For orientation: In an ELISA, binding on a coated surface is turned into a signal by an enzyme label.
Take B1: the EC50 (as a rule, the midpoint of the concentration-response curve) came to 0.077 nM. This counts as picomolar.

B2 gave an EC50 of 0.049 nM.

Molecule B3 had an EC50 of 0.041 nM.

In the case of B4, the EC50 is 0.065 nM.

B5 had a 50% effective concentration (EC50) of 0.059 nM. The EC50 values of the last two molecules are within 1.5-fold of each other.

The molecule B6 returned an EC50 of 0.058 nM.

Molecule B7 gave an EC50 of 0.067 nM.

In the case of B8, the EC50 came to 0.336 nM.

As to B9, a half-maximal effect (EC50) was put at 0.249 nM. This EC50 and that of the molecule before are within 1.5-fold of each other.

B10 returned an EC50 of 0.431 nM.

Regarding B11, the midpoint of the response, the EC50, lay at 0.2 nM.

In the case of B12, it took 0.32 nM to reach a half-maximal effect (EC50). This EC50 lies about 1.6-fold higher than the previous one.

The molecule B13 displayed an EC50 of 0.159 nM.

B14 came in with an EC50 of 0.228 nM. The EC50 values of the last two molecules are within 1.5-fold of each other.

The molecule B15 yielded an EC50 of 0.127 nM. Compared with the last molecule, the EC50 is about 1.8-fold lower.

For B16, a half-maximal effect (EC50) was put at 0.247 nM. This EC50 is about 1.9-fold higher than that of the molecule before.

Molecule B17 displayed an EC50 of 0.349 nM.

As for B18, the EC50 came out at 0.664 nM.

B19 had an EC50 of 0.258 nM. Compared with the last molecule, the EC50 is about 2.6-fold lower.

Regarding B20, a half-maximal response (EC50) required 0.263 nM. This EC50 and that of the molecule before are within 1.5-fold of each other.
